Data on 5 molecules can be found in US20230039941A1, “ENZYME ENHANCED ROOT UPTAKE OF AGROCHEMICAL ACTIVE COMPOUND” (BASF SE, priority 2019, published 2023).

Numbering of substitutions follows the chain as printed. Marks after values point to notes of the source that are not given here.

The test system of one series is wheat seedlings. Briefly: Clothianidin uptake in wheat seedlings (cotyledon analysis) after seed treatment with cutinases. Type of series: in vivo, Triticum sp. The conditions noted are these: for Average of clothianidin detected on 15 pairs of wheat cotyledons: wheat seed treatment with clothianidin plus enzyme-containing cell extract; for % Clothianidin uptake in wheat cotyledons: wheat seed treatment, one way ANOVA test (P = 0.002); for percent clothianidin uptake in wheat seedlings, effect of cutinase seed treatment: P=0.002. As to the method: a. Seed treatment: Formulations were diluted and enzymes were dissolved in HPLC water. Solutions were made and mixed immediately before each treatment. For each treatment, 100 g of spring wheat seeds (Triticum sp.) were placed in a 1-L bowl of a HEGE 11 seed treater. Treatment slurry was applied to spinning seeds in an application volume of 1.5 mL including 2.05 mg of lyophilized enzyme-containing cell extracts and seeds were spun until dry. Directly after treatment, seeds were transferred to paper seed pouches and stored in a cooler filed with ice packs until planting.
b. Plant incubation: Before seed treatment, 24-well plates were filled with RediEarth potting mixture sifted through a 3.35-mm mesh sieve. Tap water was uniformly applied to the soil surface using a conical spray nozzle until just before complete saturation of soil column (˜55 mL/plate). The soil was tamped down to a level of 1 cm below plate surface. One hour after treatment, one seed was placed on the soil surface of each well. RediEarth was sifted directly over the wells and the soil line was levelled to the plate surface. The soil surface was moistened again with ˜22 mL water/plate. Plates were then held in a randomized complete block design in an incubator at 25° C., 50% RH containing two FloraSun (F25T8 Plant Growth) lights at 14L:10D. Replication was 10 plates per treatment.
d. Cotyledon analysis: Fifteen excised pairs of wheat cotyledons were extracted (10× replicates) with acetonitrile solvent (10 mL, containing 1% acetic acid) by homogenization. The homogenate is first centrifuged to bring down the solvent/material sticking to the cap using Beckman Coulter (Allegra X-14R) centrifuge for 3 min at 3000 RPM. The collected homogenate is then treated with anhydrous magnesium sulfate (˜3500 mg), sodium acetate (˜220 mg) and vortexed well (˜30s) before further centrifugation for the same duration as above. The supernatant clear solution is then transferred into appropriate vials for LC/MS analysis without further dilution.
Control samples were prepared by spiking a known amount std clothianidin into 15 pairs of cotyledons (10 replicates) collected from the seedlings of untreated […] seeds and homogenized and processed as above. The recovery of the AI was quantified from the LC/MS data and then used to normalize the results from treated cotyledon sample sets.
LCMS analyses were performed using Thermo Fisher Scientific Q-Exactive Mass Analyzer with electrospray positive mode of ionization. Thermo Fisher Scientific Surveyor MS Plus Pump and autosampler were used for the chromatographic runs through a column (Sonoma-C18, 2.1×100 mm, 5 u). The gradient started with 98:2 Water/MeOH (containing 4 mM ammonium formate and 0.1% formic acid) and ending with 98:2 MeOH/Water in about 10 min.

Series [1] is described as follows: Uptake of the active ingredient in canola seedling cotyledons after seed treatment with or without cutinase. Type of series: in vivo. The conditions noted are these: canola, cotyledons (leaf), other: seed treatment (slurry applied to seeds), 20.1 μg/seed; Cotyledon analysis seven days after planting; normalized using mean % Al recovery (90.9%) and mean % coating efficiency; read-out: Mean Al Uptake (ng/mg leaf). The method, then: (§1) Canola seeds were treated with formulated product diluted in water by spinning 100 g seed in a 1-liter HEGE bowl while applying treatment slurry. Seeds were spun until dry.
(§2) On the day of planting, 24-well plates (10 mL, nonsterile) were filled with a highly organic plug & seedling mix. Water was uniformly applied to the soil surface using a spray nozzle until just before complete saturation of soil column. Soil was tamped down to a level of 1 cm below plate surface. One treated seed was placed on the soil surface of each well and then covered with potting mixture leveled to the plate surface. The top soil surface was sprayed once more to moisten. Plates were then held in an incubator and top-watered as needed with fertilizer water (NPK 16-4-20-3(Ca)-1(Mg)) via spray nozzle. Seven days after planting, both cotyledons from ten plants were sampled for analysis by clipping the point where cotyledon meets stem. Replication was 10×.
(§3) The seed/excised cotyledons were extracted with acetonitrile solvent (3 mL, containing 1% acetic acid) by homogenization in Teflon tubes using 2010 Geno/Grinder (Spex Sample Prep) for 2 min at 1200 RPM. The homogenate was then mixed with anhydrous sodium sulphate (˜600 mg), sodium acetate (˜100 mg) and vortexed well before centrifugation using Beckman Coulter (Allegra X-14R) centrifuge for 5 min at 3000 RPM. The clear supernatant was then transferred into appropriate vials for LC/MS analysis.
(§4) LCMS analyses were performed using Thermo Fisher Scientific Extractive Orbitrap Mass Analyzer with electrospray positive mode of ionization. Thermo Fisher Scientific Surveyor MS Plus Pump and autosampler were used for the chromatographic runs through a column (Sonoma-C18, 2.1×100 mm, 5 μm). The gradient started with 98:2 Water/MeOH (containing 4 mM ammonium formate and 0.1% formic acid) and ending with 98:2 MeOH/Water in about 10 min.

Another series concerns canola seedlings. The series is described as above. In kind it is in vivo. The conditions noted are these: for Al Uptake (%) / Mean Al Uptake (ng/mg leaf): Cotyledon analysis seven days after planting; for Al Uptake (%): calculated based on spiked control, 22340 ng/replicate; for Mean Al Uptake (ng/mg leaf): normalized using mean % Al recovery (90.9%) and mean % coating efficiency. As to the method: as §1, §2, §3, §4

`CN/C(=N\[N+](=O)[O-])NCc1cnc(Cl)s1` [clothianidin, reference compound]: in the series on wheat seedlings, the “Average of clothianidin detected on 15 pairs of wheat cotyledons” value (“Average of clothianidin detected” below) was 9.4 ± 2.0 ng and the “% Clothianidin uptake in wheat cotyledons” value (shortened to “% Clothianidin uptake”) was 0.39 ± 0.08^a %.
For the molecule `C[n+]1c([O-])c(-c2ccccc2)c(=O)n2c1SC[C@@H]2c1cnc(Cl)s1` [(3R)-3-(2-chlorothiazol-5-yl)-8-methyl-5-oxo-6-phenyl-2,3-dihydrothiazolo[3,2-a]pyrimidin-8-ium-7-olate], the concentration at 7 days after planting in series [1] stood at 2290 ng/g. Moreover, the “Al Uptake (%)” value in the series on canola seedlings was 0.40%.

B1: CUT-4: Cutinase according to SEQ No. 4, Pseudomonas mendocina (94%), NCBI WP_096825365.1 (protein)
chain: APLPDTPGAPFPSVSNFDRSGPYATTSRSEGPNCRVYRPATLGQNGVRHPIVLWGNGTGTGPTAYSGLLSHWASHGFVVAAAETSNAGTGEQMLACLDYLVQESNRTYGTYVGVLNTGRVGTSGHSQGGGGSIMAGQDERVSVTAPIQPYTIGLGHDSASQRNQQGPMFLMSGGGDTIAFPYLNAQPVYTRANVPVFWGERRYVSHFEPVGDGGAYRGPSTAWFRYHLMEDETARSTFYGRFCGLCTSVLWTEERKDIE
modifications: Pseudomonas sp. SST3; Cutinase 9
With B1, in the series with canola seedlings, the “Al Uptake (%)” value was 0.43% and the “Mean Al Uptake (ng/mg leaf)” value is 2.16 ng/mg leaf. Further, in the series on wheat seedlings, the “percent clothianidin uptake in wheat seedlings, effect of cutinase seed treatment” value (from here on “percent clothianidin uptake”) was “improvement was not significant”; the “Average of clothianidin detected” value is given as 10.8 ± 2.1 ng; the “% Clothianidin uptake” value is recorded as 0.44 ± 0.09^a %.

B2: CUT-1: Cutinase according to SEQ No. 1, biological source Pseudomonas mendocina (US5545547A) (protein, listed as Pseudomonas mendocina)
chain: APLPDTPGAPFPAVANFDRSGPYTTSSQSEGPSCRIYRPRDLGQGGVRHPVILWGNGTGAGPSTYAGLLSHWASHGFVVAAAETSNAGTGREMLACLDYLVRENDTPYGTYSGKLNTGRVGTSGHSQGGGGSIMAGQDTRVRTTAPIQPYTLGLGHDSASQRRQQGPMFLMSGGGDTIAFPYLNAQPVYRRANVPVFWGERRYVSHFEPVGSGGAYRGPSTAWFRFQLMDDQDARATFYGAQCSLCTSLLWSVERRGL
modifications: Cutinase 1
With B2, in the series with canola seedlings, the “Al Uptake (%)” value was 0.60% and the “Mean Al Uptake (ng/mg leaf)” value was 3.04 ng/mg leaf. Moreover, in the series on canola seedlings (canola cotyledon analysis), the “mean AI uptake (ng/mg leaf) compared with no enzyme control” value is “significantly higher than no enzyme control” and the “percent of AI uptake compared with no enzyme control” value is “significantly higher than no enzyme control”. In the series on wheat seedlings, the “percent clothianidin uptake” value is on record as “significantly enhanced”; the “Average of clothianidin detected” value came out at 12.5 ± 3.2 ng; the “% Clothianidin uptake” value is reported as 0.59 ± 0.15^b %.

B3: CUT-2: Cutinase according to SEQ No. 2, biological source Pseudomonas mendocina (PDB 2FX5_A) (protein, listed as Pseudomonas mendocina)
chain: B2 chain with T25V
modifications: Cutinase 2
As for B3, in the series on canola seedlings, the “Al Uptake (%)” value is on record as 0.39% and the “Mean Al Uptake (ng/mg leaf)” value is 1.87 ng/mg leaf. For the same molecule, in the series with wheat seedlings, the “percent clothianidin uptake” value is “improvement was not significant”; the “Average of clothianidin detected” value turned out to be 11.9 ± 3.4 ng; the “% Clothianidin uptake” value is listed as 0.53 ± 0.15^ab %.
